± gives the uncertainty stated by the source.
B1: Protein C-ets-1, residues 55 to 135; numbered along this chain, P14921 (parent)
chain: GFTKEQQRLGIPKDPRQWTETHVRDWVMWAVNEFSLKGVDFQKFCMNGAALCALGKDCFLELAPDFVGDILWEHLEILQKE

Variants of: B1
Assay: abundance fitness (aPCA) (normalised: wild type 0, dead -1); higher = more abundant; growth selection in yeast, the domain comes from the species named
Details: Homo sapiens

| Variant | abundance fitness |
| --- | --- |
| GFTKEQQRLGIPKDPRQWTETHVRDWVPWAVNEFSLKGVDFQKFCMNGAALCALGKDCFLELAPDFVGDILWEHLEILQKE | -0.88 ± 0.069 |
| GFTKEQQRLGIPKDPRQWTETHVRDWVMWAVNEFSLKGVDFQKFCMNGAALCALGKDCFLILAPDFVGDILWEHLEILQKE | -0.685 ± 0.11 |
| GFTKEQQRLGIPKDPRQWTECHVRDWVMWAVNEFSLKGVDFQKFCMNGAALCALGKDCFLELAPDFVGDILWEHLEILQKE | -0.089 ± 0.049 |
| GFTKEQQRLGIPKDPRQWTETHVRDWVMWAVNEFSLKGVDFQKFCMNGAALCALGVDCFLELAPDFVGDILWEHLEILQKE | -0.558 ± 0.046 |
| GFTKEQQRLGIPKDPRQWTETHSRDWVMWAVNEFSLKGVDFQKFCMNGAALCALGKDCFLELAPDFVGDILWEHLEILQKE | -0.48 ± 0.034 |
| GFTKEQQRLGIPKDPRQWTETHVRDWVMWAVNEFSLKGVDFQKFCMNGAALCALGKDCFLELAPDFVGDILWRHLEILQKE | -0.088 ± 0.031 |
| GFTKEQQRLGIPKDPRQWTETHVRDWVMWADNEFSLKGVDFQKFCMNGAALCALGKDCFLELAPDFVGDILWEHLEILQKE | -0.491 ± 0.055 |
| GFTKEQQWLGIPKDPRQWTETHVRDWVMWAVNEFSLKGVDFQKFCMNGAALCALGKDCFLELAPDFVGDILWEHLEILQKE | -0.169 ± 0.043 |
| GFTKEQQRLGIPKDPRQWTETHVRDWVMWAVNEFSLKGVDFQKFCMNGAAPCALGKDCFLELAPDFVGDILWEHLEILQKE | -0.794 ± 0.059 |
| GFTKEQQRLGIPKDFRQWTETHVRDWVMWAVNEFSLKGVDFQKFCMNGAALCALGKDCFLELAPDFVGDILWEHLEILQKE | -0.935 ± 0.14 |
| GFTKEQGRLGIPKDPRQWTETHVRDWVMWAVNEFSLKGVDFQKFCMNGAALCALGKDCFLELAPDFVGDILWEHLEILQKE | -0.047 ± 0.029 |
| GFTKEQQRLGIPKDPRQWTETHVRDWVMWAVNEFSLKGVDFQKFCMNGAALCALGKDCFLVLAPDFVGDILWEHLEILQKE | -0.52 ± 0.048 |
| GFTKEQQRLGIPKDPRQWTETHVRDWVMWAVNEFSLKGVDFQKFCMNGAALCALGKDCFLELAPDFVGDILWEHLEALQKE | 0.008 ± 0.042 |
| GFTKEQQRLGIPKDPRQWTETHVRDWVMWAVNEFSLKGVDFQKFCINGAALCALGKDCFLELAPDFVGDILWEHLEILQKE | -0.154 ± 0.074 |
| GFTKEQQRLGIPKDPRQWTETHVRDWVMWAVNEFSLKGVDFQKFCMNGAALCALGKDCFLELAPDFVGDILWEHLEITQKE | -0.289 ± 0.066 |
| GFTKEQQRLGIPKAPRQWTETHVRDWVMWAVNEFSLKGVDFQKFCMNGAALCALGKDCFLELAPDFVGDILWEHLEILQKE | -0.533 ± 0.034 |
| GFTKEQQRLGIPKDPRQWTETHVRDWVMWAVNEFSLKGVDFQKFPMNGAALCALGKDCFLELAPDFVGDILWEHLEILQKE | -0.344 ± 0.038 |

| Variant | abundance fitness |
| --- | --- |
| GFTKEQQRLGIPKDPRQWTETHVRDWVMWAVNEFSLKGVDFQKFCMNGAALCALGKDCFLELASDFVGDILWEHLEILQKE | -0.202 ± 0.045 |
| GFTKEQQRLGIPKYPRQWTETHVRDWVMWAVNEFSLKGVDFQKFCMNGAALCALGKDCFLELAPDFVGDILWEHLEILQKE | -0.407 ± 0.046 |
| GFTKEQQRLGIPKDPRQWTETHVRDWVMWAVNEFSLKGVDFQKFCMNGAALCAKGKDCFLELAPDFVGDILWEHLEILQKE | -0.102 ± 0.05 |
| GFTKEQQRLGIPKDPRQWTETHVRDWVMWAVNEFSLKGVDFQKFCMNGAALCALGKDCFLELAPMFVGDILWEHLEILQKE | -0.019 ± 0.075 |
| GFTKEQQRLGIPKDPRQWTETHVRDWVMWAVNEFSLKGVDFQKFCMNGAALCALGKDCFLELAPDFVGDILWEHWEILQKE | -0.097 ± 0.046 |
| GFTKEQQRLGIPKDPRQWTETHVRDWVMWAVNEFSLKGVDFCKFCMNGAALCALGKDCFLELAPDFVGDILWEHLEILQKE | -0.259 ± 0.061 |
| GFTKEQQRLGIPKDPRQWTETHVRDWVMWAVNEFSLKGVDFQKWCMNGAALCALGKDCFLELAPDFVGDILWEHLEILQKE | -0.138 ± 0.05 |
| GFTKETQRLGIPKDPRQWTETHVRDWVMWAVNEFSLKGVDFQKFCMNGAALCALGKDCFLELAPDFVGDILWEHLEILQKE | -0.102 ± 0.062 |
| GFTKEQQRLGIPKDPRQWTETHVRDWVMWAVNMFSLKGVDFQKFCMNGAALCALGKDCFLELAPDFVGDILWEHLEILQKE | -0.316 ± 0.055 |
| GFTKEQQRLGIPKDPRQWTETHVRDWVMWAVNEFSGKGVDFQKFCMNGAALCALGKDCFLELAPDFVGDILWEHLEILQKE | -0.661 ± 0.037 |
| GFTKEQQRLGIPKDPRQWTETHVRDWVMWAVNEFSLKGVDFQKFCMNGAALCALGADCFLELAPDFVGDILWEHLEILQKE | -0.482 ± 0.04 |
| GFTKEQQRLGIPKDPRQWTETHVRDWVMWAVNEFSLKGHDFQKFCMNGAALCALGKDCFLELAPDFVGDILWEHLEILQKE | -0.537 ± 0.13 |
| GFTKEQQRLGIPKDPRQWTETHVRDWVMWAVNEFSLKGVDFQKFCMNGAALCQLGKDCFLELAPDFVGDILWEHLEILQKE | -0.097 ± 0.046 |
| GFTKEQQRLGIPKDPRQWTETHVRDWVNWAVNEFSLKGVDFQKFCMNGAALCALGKDCFLELAPDFVGDILWEHLEILQKE | 0.054 ± 0.06 |
| GFTKEQQRLGIPKDPRQWTETHVRDWVMWAVNEFSLKGVDFQKFCMNGAALCALGKDCFLELAPDFVGDIPWEHLEILQKE | -0.891 ± 0.1 |
| GFTKEQQRLGIPKDPRQWTETHVRDWVMWAVNEFCLKGVDFQKFCMNGAALCALGKDCFLELAPDFVGDILWEHLEILQKE | -0.072 ± 0.053 |
| GFTKEQQRLGIPKDPRQWYETHVRDWVMWAVNEFSLKGVDFQKFCMNGAALCALGKDCFLELAPDFVGDILWEHLEILQKE | -0.642 ± 0.091 |

Source: the Human Domainome abundance scans (Beltran et al. 2025)
